Consider 22 variants from IntAct's records for PubMed 35512704.

B1: Mothers against decapentaplegic homolog 4 (Homo sapiens), Q13485 (parent)
chain: MDNMSITNTPTSNDACLSIVHSLMCHRQGGESETFAKRAIESLVKKLKEKKDELDSLITAITTNGAHPSKCVTIQRTLDGRLQVAGRKGFPHVIYARLWRWPDLHKNELKHVKYCQYAFDLKCDSVCVNPYHYERVVSPGIDLSGLTLQSNAPSSMMVKDEYVHDFEGQPSLSTEGHSIQTIQHPPSNRASTETYSTPALLAPSESNATSTANFPNIPVASTSQPASILGGSHSEGLLQIASGPQPGQQQNGFTGQPATYHHNSTTTWTGSRTAPYTPNLPHHQNGHLQHHPPMPPHPGHYWPVHNELAFQPPISNHPAPEYWCSIAYFEMDVQVGETFKVPSSCPIVTVDGYVDPSGGDRFCLGQLSNVHRTEAIERARLHIGKGVQLECKGEGDVWVRCLSDHAVFVQSYYLDREAGRAPGDAVHKIYPSAYIKVFDLRQCHRQMQQQAATAQAAAAAQAAAVAGNIPGPGSVGGIAPAISLSAAAGIGVDDLRRLCILRMSFVKGWGPDYPRQSIKETPCWIEIHLHRALQLLDEVLHTMPIADPQPLD
partner: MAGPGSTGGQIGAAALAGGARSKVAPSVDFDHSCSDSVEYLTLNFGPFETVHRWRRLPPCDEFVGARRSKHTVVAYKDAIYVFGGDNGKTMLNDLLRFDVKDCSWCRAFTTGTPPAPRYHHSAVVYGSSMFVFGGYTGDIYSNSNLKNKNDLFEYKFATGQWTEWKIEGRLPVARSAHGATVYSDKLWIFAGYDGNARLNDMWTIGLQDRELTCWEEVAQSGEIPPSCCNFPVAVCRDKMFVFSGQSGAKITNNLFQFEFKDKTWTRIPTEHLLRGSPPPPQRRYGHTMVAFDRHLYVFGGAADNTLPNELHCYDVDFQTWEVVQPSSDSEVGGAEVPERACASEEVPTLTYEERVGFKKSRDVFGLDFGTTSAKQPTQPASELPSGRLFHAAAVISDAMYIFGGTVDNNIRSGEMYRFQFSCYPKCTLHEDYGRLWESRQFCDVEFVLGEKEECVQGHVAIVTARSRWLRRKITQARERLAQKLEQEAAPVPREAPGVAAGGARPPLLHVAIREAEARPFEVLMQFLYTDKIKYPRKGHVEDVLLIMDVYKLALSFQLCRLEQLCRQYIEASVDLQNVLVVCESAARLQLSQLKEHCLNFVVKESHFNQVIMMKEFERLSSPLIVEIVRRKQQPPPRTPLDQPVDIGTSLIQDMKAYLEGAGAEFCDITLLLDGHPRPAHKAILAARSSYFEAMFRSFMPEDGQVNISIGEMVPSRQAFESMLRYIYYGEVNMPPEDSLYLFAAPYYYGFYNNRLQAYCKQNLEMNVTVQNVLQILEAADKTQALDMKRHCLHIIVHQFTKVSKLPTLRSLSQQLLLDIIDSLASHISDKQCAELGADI
B2: Mothers against decapentaplegic homolog 4 (Homo sapiens), Q13485 (parent)
chain: B1 chain
partner: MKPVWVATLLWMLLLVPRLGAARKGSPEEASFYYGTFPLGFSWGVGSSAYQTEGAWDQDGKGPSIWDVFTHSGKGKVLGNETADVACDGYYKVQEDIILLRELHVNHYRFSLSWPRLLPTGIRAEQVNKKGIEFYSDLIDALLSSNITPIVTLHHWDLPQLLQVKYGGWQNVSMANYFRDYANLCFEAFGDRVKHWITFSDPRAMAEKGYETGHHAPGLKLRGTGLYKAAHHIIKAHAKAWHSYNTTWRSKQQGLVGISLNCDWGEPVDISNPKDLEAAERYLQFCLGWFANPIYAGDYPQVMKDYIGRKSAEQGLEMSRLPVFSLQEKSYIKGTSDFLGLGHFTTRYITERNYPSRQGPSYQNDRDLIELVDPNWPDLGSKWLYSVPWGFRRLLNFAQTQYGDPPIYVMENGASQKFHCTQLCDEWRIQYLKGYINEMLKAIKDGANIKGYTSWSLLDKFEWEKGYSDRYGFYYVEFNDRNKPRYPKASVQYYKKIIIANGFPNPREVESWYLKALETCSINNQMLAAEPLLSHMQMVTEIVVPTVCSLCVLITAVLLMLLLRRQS
B3: Mothers against decapentaplegic homolog 4 (Homo sapiens), Q13485 (parent)
chain: B1 chain
partner: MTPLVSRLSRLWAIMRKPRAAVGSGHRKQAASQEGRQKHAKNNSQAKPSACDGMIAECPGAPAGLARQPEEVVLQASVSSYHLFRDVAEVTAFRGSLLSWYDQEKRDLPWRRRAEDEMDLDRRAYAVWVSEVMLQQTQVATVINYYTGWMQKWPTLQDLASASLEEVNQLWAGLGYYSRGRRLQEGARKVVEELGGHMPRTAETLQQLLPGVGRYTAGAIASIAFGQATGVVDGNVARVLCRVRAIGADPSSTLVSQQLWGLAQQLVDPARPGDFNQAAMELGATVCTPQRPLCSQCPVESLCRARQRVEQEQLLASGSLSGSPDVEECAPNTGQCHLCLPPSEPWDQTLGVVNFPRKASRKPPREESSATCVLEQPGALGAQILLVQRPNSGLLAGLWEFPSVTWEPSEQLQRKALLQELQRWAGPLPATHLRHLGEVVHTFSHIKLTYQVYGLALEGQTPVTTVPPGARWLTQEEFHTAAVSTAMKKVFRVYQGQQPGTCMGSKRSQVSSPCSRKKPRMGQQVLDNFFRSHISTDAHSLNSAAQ
B4: Mothers against decapentaplegic homolog 4 (Homo sapiens), Q13485 (parent)
chain: B1 chain
partner: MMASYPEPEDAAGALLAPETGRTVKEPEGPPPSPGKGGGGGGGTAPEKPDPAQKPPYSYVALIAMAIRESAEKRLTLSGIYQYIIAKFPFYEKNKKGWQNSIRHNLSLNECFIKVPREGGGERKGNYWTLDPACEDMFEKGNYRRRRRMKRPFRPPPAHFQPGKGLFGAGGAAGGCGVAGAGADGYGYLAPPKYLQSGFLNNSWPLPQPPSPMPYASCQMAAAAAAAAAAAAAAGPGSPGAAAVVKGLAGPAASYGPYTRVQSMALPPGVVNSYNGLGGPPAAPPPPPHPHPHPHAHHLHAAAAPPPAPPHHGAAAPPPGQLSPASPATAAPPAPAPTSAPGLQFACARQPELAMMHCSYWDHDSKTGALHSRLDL
B5: Mothers against decapentaplegic homolog 4 (Homo sapiens), Q13485 (parent)
chain: B1 chain
partner: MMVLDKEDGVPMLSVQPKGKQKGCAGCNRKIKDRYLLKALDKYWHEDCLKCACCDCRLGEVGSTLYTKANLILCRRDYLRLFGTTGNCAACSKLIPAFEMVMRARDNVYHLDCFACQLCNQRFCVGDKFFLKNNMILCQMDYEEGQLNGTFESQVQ
B6: Mothers against decapentaplegic homolog 4 (Homo sapiens), Q13485 (parent)
chain: B1 chain
partner: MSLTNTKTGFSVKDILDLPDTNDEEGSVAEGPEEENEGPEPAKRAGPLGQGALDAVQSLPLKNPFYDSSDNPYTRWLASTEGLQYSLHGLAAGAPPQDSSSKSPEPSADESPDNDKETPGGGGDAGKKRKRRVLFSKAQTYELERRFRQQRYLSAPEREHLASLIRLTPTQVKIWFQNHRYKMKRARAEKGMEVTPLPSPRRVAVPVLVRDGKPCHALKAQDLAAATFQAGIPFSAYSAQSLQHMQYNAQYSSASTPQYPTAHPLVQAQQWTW
B7: Mothers against decapentaplegic homolog 4 (Homo sapiens), Q13485 (parent)
chain: B1 chain
partner: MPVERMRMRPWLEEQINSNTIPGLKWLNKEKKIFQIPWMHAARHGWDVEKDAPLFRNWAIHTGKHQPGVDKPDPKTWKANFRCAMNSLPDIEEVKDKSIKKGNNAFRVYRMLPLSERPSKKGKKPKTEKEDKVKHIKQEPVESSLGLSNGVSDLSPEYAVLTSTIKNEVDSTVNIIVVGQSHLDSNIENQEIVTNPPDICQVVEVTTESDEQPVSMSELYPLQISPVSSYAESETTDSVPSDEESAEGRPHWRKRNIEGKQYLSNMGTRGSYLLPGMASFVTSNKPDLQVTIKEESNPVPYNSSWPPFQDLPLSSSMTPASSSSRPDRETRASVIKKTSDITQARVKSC
B8: Mothers against decapentaplegic homolog 4 (Homo sapiens), Q13485 (parent)
chain: B1 chain
partner: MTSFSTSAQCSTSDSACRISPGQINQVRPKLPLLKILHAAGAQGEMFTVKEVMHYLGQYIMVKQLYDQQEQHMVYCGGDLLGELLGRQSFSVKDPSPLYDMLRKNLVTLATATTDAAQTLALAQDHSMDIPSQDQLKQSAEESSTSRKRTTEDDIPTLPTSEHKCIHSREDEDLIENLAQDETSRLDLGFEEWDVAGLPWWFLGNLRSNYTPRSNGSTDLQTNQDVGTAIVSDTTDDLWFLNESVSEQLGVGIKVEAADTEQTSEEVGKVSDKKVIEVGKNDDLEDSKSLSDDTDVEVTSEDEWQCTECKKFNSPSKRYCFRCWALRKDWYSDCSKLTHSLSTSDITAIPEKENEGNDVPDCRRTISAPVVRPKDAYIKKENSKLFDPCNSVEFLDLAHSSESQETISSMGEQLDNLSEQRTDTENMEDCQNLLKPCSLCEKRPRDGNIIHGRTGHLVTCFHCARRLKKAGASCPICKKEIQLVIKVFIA

The first test covers variants of B1. The settings on record: with lztr1_human LZTR1, Q8N653.
For R361H, the “effect of a mutation on the interaction” value is given as “with no effect”.

The variants in another test derive from B1. The settings on record: with lztr1_human LZTR1, Q8N653. The source holds these as a separate data set.
As for R361H, the “effect of a mutation on the interaction” value is “decreasing interaction strength”.

The variants in a further test derive from B2. As to conditions: with lctl_human LCTL.
G386D: the “effect of a mutation on the interaction” value is given as “with no effect”.

The variants in a further test derive from B2. As to conditions: with lctl_human LCTL. This is another data set of the same source.
As to D351H, the “effect of a mutation on the interaction” value is reported as “with no effect”.

In a further test the parent is B3. As to conditions: with mutyh_human MUTYH.
As for D351H, the “effect of a mutation on the interaction” value is “with no effect”.

Variants of B3 are the subject of another test. As to conditions: with mutyh_human MUTYH. The source holds these as a separate data set.
As for G386D, the “effect of a mutation on the interaction” value was “with no effect”.

In another test the parent is B3. The settings on record: with mutyh_human MUTYH. This is another data set of the same source.
For the variant R361C, the “effect of a mutation on the interaction” value is given as “with no effect”.

Variants of B4 are the subject of a further test. The settings on record: with foxl2_human FOXL2, P58012.
As for R361C, the “effect of a mutation on the interaction” value was “with no effect”.

In another test the parent is B4. The settings on record: with foxl2_human FOXL2, P58012. This is another data set of the same source.
R361H: the “effect of a mutation on the interaction” value is reported as “with no effect”.

In a further test the parent is B4. The settings on record: with foxl2_human FOXL2, P58012. The source holds these as a separate data set.
For the variant D351H, the “effect of a mutation on the interaction” value is on record as “with no effect”.

In another test the parent is B4. The settings on record: with foxl2_human FOXL2, P58012. The source holds these as a separate data set.
Take G386D: the “effect of a mutation on the interaction” value is recorded as “with no effect”.

In a further test the parent is B5. As to conditions: with rbtn1_human LMO1, P25800.
Regarding R361C, the “effect of a mutation on the interaction” value is reported as “with no effect”.

Variants of B5 are the subject of another test. As to conditions: with rbtn1_human LMO1, P25800. The source holds these as a separate data set.
As to R361H, the “effect of a mutation on the interaction” value was “with no effect”.

The next test covers variants of B5. The settings on record: with rbtn1_human LMO1, P25800. The source holds these as a separate data set.
Consider G386D, for which the “effect of a mutation on the interaction” value is given as “with no effect”.

Variants of B5 are the subject of the next test. As to conditions: with rbtn1_human LMO1, P25800. This is another data set of the same source.
In the case of D351H, the “effect of a mutation on the interaction” value is given as “with no effect”.

Variants of B6 are the subject of the next test. The settings on record: with nkx22_human NKX2-2, O95096.
Take R361C: the “effect of a mutation on the interaction” value is recorded as “with no effect”.

In the next test the parent is B6. As to conditions: with nkx22_human NKX2-2, O95096. This is another data set of the same source.
For R361H, the “effect of a mutation on the interaction” value was “with no effect”.

The variants in another test derive from B6. The settings on record: with nkx22_human NKX2-2, O95096. This is another data set of the same source.
In the case of D351H, the “effect of a mutation on the interaction” value is on record as “with no effect”.

In the next test the parent is B7. The settings on record: with irf2_human IRF2, P14316.
Turning to R361C, the “effect of a mutation on the interaction” value is on record as “with no effect”.

In the next test the parent is B7. The settings on record: with irf2_human IRF2, P14316. This is another data set of the same source.
Take G386D: the “effect of a mutation on the interaction” value was “with no effect”.

Variants of B7 are the subject of another test. As to conditions: with irf2_human IRF2, P14316. This is another data set of the same source.
D351H: the “effect of a mutation on the interaction” value is given as “with no effect”.

The next test covers variants of B8. As to conditions: with mdm4_human MDM4, O15151.
Turning to D351H, the “effect of a mutation on the interaction” value is recorded as “with no effect”.

In a further test the parent is B8. The settings on record: with mdm4_human MDM4, O15151. The source holds these as a separate data set.
In the case of G386D, the “effect of a mutation on the interaction” value is listed as “with no effect”.
